Test results from CN117138036A.

Legend:
[1] = molecular target: 混合人源IL-4、IL-5 (human) (UniProt P05112); test: cell-based or functional assay
[2] = molecular target: IL-4Rα (UniProt P24394); test: blocking ELISA: IL-4Rα coated, biotin-IL-4; hIgG is the control, fitted value as printed
[3] = molecular target: IL-5 (human) (UniProt P05113); test: cell-based or functional assay
[4] = molecular target: IL-4Rα (UniProt P24394); test: cell-based or functional assay

Substance	EC50, IL4:IL5=1:1混合诱导TF-1增殖, 板8 [1]	EC50, IL4:IL5=1:2混合诱导TF-1增殖, 板10 [1]	EC50, IL4:IL5=1:3混合诱导TF-1增殖, 板12 [1]	EC50, IL4:IL5=3:1混合诱导TF-1增殖, 板4 [1]	EC50, IL4:IL5=4:1混合诱导TF-1增殖, 板2 [1]	试验窗口, IL4:IL5=1:1混合诱导TF-1增殖, 板8 [1]	试验窗口, IL4:IL5=1:2混合诱导TF-1增殖, 板10 [1]	试验窗口, IL4:IL5=1:3混合诱导TF-1增殖, 板12 [1]	试验窗口, IL4:IL5=1:4混合诱导TF-1增殖, 板14 [1]	试验窗口, IL4:IL5=2:1混合诱导TF-1增殖, 板6 [1]	试验窗口, IL4:IL5=3:1混合诱导TF-1增殖, 板4 [1]	试验窗口, IL4:IL5=4:1混合诱导TF-1增殖, 板2 [1]	EC50, IL4:IL5=1:1混合诱导TF-1增殖, 板7 [1]	EC50, IL4:IL5=1:2混合诱导TF-1增殖, 板9 [1]	EC50, IL4:IL5=1:3混合诱导TF-1增殖, 板11 [1]	EC50, IL4:IL5=1:4混合诱导TF-1增殖, 板13 [1]	EC50, IL4:IL5=2:1混合诱导TF-1增殖, 板5 [1]	EC50, IL4:IL5=3:1混合诱导TF-1增殖, 板3 [1]	EC50, IL4:IL5=4:1混合诱导TF-1增殖, 板1 [1]	试验窗口, IL4:IL5=1:1混合诱导TF-1增殖, 板7 [1]	further results
Dupilumab+Mepolizumab(1:1混合)	1.73 nM	1.96 nM	0.88 nM	0.965 nM	0.825 nM	1.92 倍	1.62 倍	1.76 倍	1.79 倍	1.76 倍	1.67 倍	1.68 倍	–	–	–	–	–	–	–	–	EC50, IL4:IL5=1:4混合诱导TF-1增殖, 板14 [1]: 0.395 nM; EC50, IL4:IL5=2:1混合诱导TF-1增殖, 板6 [1]: 1.28 nM
hIgG (antibody)	–	–	–	–	–	–	–	–	–	–	–	–	–	–	–	–	–	–	–	–	EC50 [2]: 2.04 nM; EC50, 中和IL-5诱导的TF-1细胞增殖 (control) [3]: 0.108 nM; EC50, 中和IL-4诱导的TF-1细胞增殖 (control) [4]: 0.375 nM; EC50, 中和IL-13诱导的TF-1细胞增殖 (control) [4]: 0.131 nM

Continued, in another order:

EC50, IL4:IL5=1:1混合诱导TF-1增殖, 板8 [1]	EC50, IL4:IL5=1:2混合诱导TF-1增殖, 板10 [1]	EC50, IL4:IL5=1:3混合诱导TF-1增殖, 板12 [1]	EC50, IL4:IL5=3:1混合诱导TF-1增殖, 板4 [1]	EC50, IL4:IL5=4:1混合诱导TF-1增殖, 板2 [1]	试验窗口, IL4:IL5=1:1混合诱导TF-1增殖, 板8 [1]	试验窗口, IL4:IL5=1:2混合诱导TF-1增殖, 板10 [1]	试验窗口, IL4:IL5=1:3混合诱导TF-1增殖, 板12 [1]	试验窗口, IL4:IL5=1:4混合诱导TF-1增殖, 板14 [1]	试验窗口, IL4:IL5=2:1混合诱导TF-1增殖, 板6 [1]	试验窗口, IL4:IL5=3:1混合诱导TF-1增殖, 板4 [1]	试验窗口, IL4:IL5=4:1混合诱导TF-1增殖, 板2 [1]	EC50, IL4:IL5=1:1混合诱导TF-1增殖, 板7 [1]	EC50, IL4:IL5=1:2混合诱导TF-1增殖, 板9 [1]	EC50, IL4:IL5=1:3混合诱导TF-1增殖, 板11 [1]	EC50, IL4:IL5=1:4混合诱导TF-1增殖, 板13 [1]	EC50, IL4:IL5=2:1混合诱导TF-1增殖, 板5 [1]	EC50, IL4:IL5=3:1混合诱导TF-1增殖, 板3 [1]	EC50, IL4:IL5=4:1混合诱导TF-1增殖, 板1 [1]	试验窗口, IL4:IL5=1:1混合诱导TF-1增殖, 板7 [1]	Substance	further results
14.7 nM	0.00264 nM	0.00193 nM	0.000915 nM	0.105 nM	1.07 倍	0.99 倍	0.95 倍	1.03 倍	0.99 倍	1.02 倍	1.01 倍	–	–	–	–	–	–	–	–	Human IgG1,kappa Isotype Control (antibody)	–
–	–	–	–	–	–	–	–	–	–	–	–	14.9 nM	0.00104 nM	0.00147 nM	1.1 nM	2.94 nM	0.00132 nM	0.0013 nM	1.11 倍	Mepolizumab (antibody)	试验窗口, IL4:IL5=1:2混合诱导TF-1增殖, 板9 [1]: 1.06 倍; 试验窗口, IL4:IL5=1:3混合诱导TF-1增殖, 板11 [1]: 1.01 倍; 试验窗口, IL4:IL5=1:4混合诱导TF-1增殖, 板13 [1]: 1.14 倍; 试验窗口, IL4:IL5=2:1混合诱导TF-1增殖, 板5 [1]: 0.99 倍; 试验窗口, IL4:IL5=3:1混合诱导TF-1增殖, 板3 [1]: 1.05 倍; 试验窗口, IL4:IL5=4:1混合诱导TF-1增殖, 板1 [1]: 1.02 倍
–	–	–	–	–	–	–	–	–	–	–	–	0.57 nM	0.899 nM	0.343 nM	0.156 nM	0.452 nM	0.448 nM	0.813 nM	1.77 倍	dupilumab (antibody)	试验窗口, IL4:IL5=1:2混合诱导TF-1增殖, 板9 [1]: 1.68 倍; 试验窗口, IL4:IL5=1:3混合诱导TF-1增殖, 板11 [1]: 1.53 倍; 试验窗口, IL4:IL5=1:4混合诱导TF-1增殖, 板13 [1]: 1.58 倍; 试验窗口, IL4:IL5=2:1混合诱导TF-1增殖, 板5 [1]: 1.6 倍; 试验窗口, IL4:IL5=4:1混合诱导TF-1增殖, 板1 [1]: 1.77 倍
